Test results published in patent publication US20220389097A1 (Genentech, published 2022).

Columns and labels:
[1] = target: T1, human TREM2 on cells (human, UniProt Q9NZC2 19-230); assay: cell-based or functional assay
T1 sequence: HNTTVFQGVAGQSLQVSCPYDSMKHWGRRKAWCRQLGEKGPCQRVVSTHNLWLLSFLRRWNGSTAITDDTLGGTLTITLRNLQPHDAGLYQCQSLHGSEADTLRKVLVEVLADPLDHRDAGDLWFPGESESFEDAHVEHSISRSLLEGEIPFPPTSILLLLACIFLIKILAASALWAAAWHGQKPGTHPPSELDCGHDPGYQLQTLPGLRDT

[2] = target: T1, human TREM2 on cells; assay: cell-based or functional assay; remark: listed apart in the source
[3] = target: T2, soluble monomeric human TREM2 (human, UniProt Q9NZC2 19-174, limits assumed); assay: SPR (Biacore T200), 37 C; IgG on anti-CH1 chip, soluble monomeric TREM2
T2 construct: Not the same as shed sTREM2; also called soluble monomeric TREM2
T2 sequence: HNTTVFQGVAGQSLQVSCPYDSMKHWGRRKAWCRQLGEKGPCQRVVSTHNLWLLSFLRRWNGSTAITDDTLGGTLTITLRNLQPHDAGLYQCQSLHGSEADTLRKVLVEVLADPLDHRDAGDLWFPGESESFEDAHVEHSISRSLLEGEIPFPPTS

[4] = target: T3, soluble human TREM2 (sTREM2) (human, UniProt Q9NZC2 19-157); assay: sandwich ELISA: test antibody coated as capture, sTREM2 from BMDM culture supernatant, biotinylated 3.17A9 as detection; normalised to 1.16B8
T3 construct: also called soluble TREM2; TREM2 ectodomain
T3 sequence: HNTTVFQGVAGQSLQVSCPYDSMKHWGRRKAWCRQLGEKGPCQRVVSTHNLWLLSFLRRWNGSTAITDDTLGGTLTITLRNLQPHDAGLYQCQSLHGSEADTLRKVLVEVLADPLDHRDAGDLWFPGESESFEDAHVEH
Excerpt: For example, as shown in an Example 11 herein, the human TREM2 ELISA assay measured binding of antibodies to sTREM2 by coating onto plate wells the antibody to be tested as capture reagents and with biotinylated IgV-reactive monoclonal antibody 3.17A9 used as the detection reagent. Control antibody 1.16B8 was used as a positive control antibody to establish the standard for sTREM2 binding.
A human TREM2 ELISA assay was used to measure binding of more than forty antibodies to soluble TREM2 (sTREM2) as follows: test anti-hTREM2 antibodies were coated onto plate wells as capture reagents and a biotinylated IgV-reactive monoclonal antibody, 3.17A9, was used as the detection reagent. Antibody 1.16B8 was used as a control antibody to establish the standard for sTREM2 binding. Plates coated with test or control antibody were incubated with diluted culture supernatant from bone marrow-derived macrophage (BMDM) cultures from transgenic mice expressing hTREM2. sTREM2 is constitutively produced by the BMDM cultures expressing hTREM2 and shed into the culture supernatant. Measurements were recorded at 450 nm for detection and 570 nm for background. The 3.17A9/1.16B8 antibody pair was selected over reagents provided in the R&D Systems kit as the commercial reagents were not compatible with sTREM2 detection of some of the antibodies tested. Control antibody 1.16B8 light chain sequence is shown in SEQ ID NO: 170, and its heavy chain sequence is shown in SEQ ID NO: 171.

[5] = target: T4, human TREM2-Fc (human, UniProt Q9NZC2 19-174); assay: SPR (Biacore T200), 37 C; TREM2-Fc on protein A chip, Fab in solution
T4 construct: also called hTREM2; not shown: Fc part (captured by anti-human IgG1 Fc or protein A)
T4 sequence: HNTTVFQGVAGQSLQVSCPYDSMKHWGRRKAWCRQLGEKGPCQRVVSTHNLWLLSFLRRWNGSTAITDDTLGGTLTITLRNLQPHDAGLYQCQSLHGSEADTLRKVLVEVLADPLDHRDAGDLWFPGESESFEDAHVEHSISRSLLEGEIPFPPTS
Experimental: The humanized heavy chain variants were tested for affinity by combining the heavy chain variants with the 3.10C2-L1 light chain. These variants were expressed as Fab fragments, purified by protein A chromatography, and tested for affinity for TREM2-Fc coated on a protein A chip with a Biacore™ T200 apparatus.

[6] = target: T4, human TREM2-Fc; assay: SPR (Biacore T200), 37 C; TREM2-Fc on protein A chip, soluble Fab
Experimental: (§1) Affinity of h3.10C2.v1 (FIGS. 9A-B) for human and cynomolgus TREM2 was determined by SPR in a Biacore™ T200 apparatus in two formats, both at 37° C. In one format TREM2-Fc was immobilized on protein A chips and soluble anti-TREM2 Fab fragments used as ligands. In the second format, anti-TREM2 IgG was immobilized on anti-CH1 Biacore™ chips and used soluble monomeric TREM2 as ligand.

[7] = target: T5, cynomolgus TREM2-Fc (cynomolgus monkey, UniProt A0A2K5UY34 49-204); assay: as above
T5 construct: also called cyno TREM2; not shown: Fc part
T5 sequence: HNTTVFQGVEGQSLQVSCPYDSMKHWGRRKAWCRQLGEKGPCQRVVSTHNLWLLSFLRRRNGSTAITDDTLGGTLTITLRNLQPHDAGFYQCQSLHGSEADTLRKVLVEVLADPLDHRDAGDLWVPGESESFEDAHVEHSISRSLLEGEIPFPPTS
Experimental: as §1

[8] = target: T4, human TREM2-Fc; assay: SPR (Biacore T200), 37 C; TREM2-Fc on anti-human IgG1 Fc chip, Fab in solution
Experimental: (§2) Briefly, clone variants were expressed as Fab fragments and purified by anti-CH1 affinity chromatography followed by size exclusion chromatography. TREM2-Fc antigens were immobilized on anti-human IgG1 Fc Biacore™ chips and soluble Para.09 variant and 3.10C2 clone Fab fragments were bound to immobilized TREM2 at 37° C.

[9] = target: T5, cynomolgus TREM2-Fc; assay: as above
Experimental: as §2

B1: hPara.09.v2 Q100P/V104L (antibody, human IgG1, V domains shown)
VH: EVQLVESGGGLVQPGGSLKLSCATSGFPFSNVWLHWVRQASGKGPEWVAHIKAKSDNYATYYAESVKGRFTISRDDSKNTVYLQMNSLKTEDTAVYYCTDILEYWGQGTLVTVSS
VL: DVVMTQSPLSLPVTPGEPASISCRSSRSLLTSKGITSLYWYLQKPGQSPQLLIYRMSNLASGIPDRFSGSGSGTDFTLKISRVEAEDVGVYYCAQFLVYPYTFGPGTKLEIK
- EC50, average X04 plaque intensity, human iPSC-derived microglia plaque assay (FIG. 24C) [1]: 40 nM
- EC50, survival of iPSC-derived microglia (FIG. 23E) [1]: 0.19 nM
- EC50, total Abeta plaque intensity, human iPSC-derived microglia plaque assay (FIG. 24B) [1]: 770 nM
- phospho-SYK/total SYK relative to anti-gD control, iPSC-derived microglia, 1 hour [1]: 2 fold
- phospho-SYK/total SYK relative to anti-gD control, iPSC-derived microglia, 4 hours [1]: > 10 fold
- EC50, Jurkat NFAT luciferase reporter cells [2]: 0.0232 µg/mL
- IC50, TREM2 shedding inhibition in Jurkat-NFAT reporter cells (sTREM2 ELISA) [2]: 0.114 µg/mL

B2: h3.10C2.v1 hIgG1 N297G (antibody, V domains shown)
VH: EVQLVESGGGLVQPGGSLKLSCATSGFPFSNVWMHWVRQASGKGLEWIAHIKAKSDNYATYYAESVKGRFTISRDDSKTTIYLQMNSLKTEDTAVYYCTGLDYWGQGTTVTVSS
VL: DVVMTQSPLSLPVTPGEPASISCRSSRSLLTSKGITSLYWYLQKPGQSPQLLIYRMSNLASGVPDRFSGSGSGTDFTLKISRVEAEDVGVYYCAQFLVYPYTFGQGTKVEIK
notes: Human IgG1 N297G; also called h3.10C2.v1.huIgG1.N297G
- EC50, average X04 plaque intensity, human iPSC-derived microglia plaque assay (FIG. 24C) [1]: 11 nM
- EC50, survival of iPSC-derived microglia (FIG. 23E) [1]: 0.35 nM
- EC50, total Abeta plaque intensity, human iPSC-derived microglia plaque assay (FIG. 24B) [1]: 130 nM
- EC50, Jurkat NFAT luciferase reporter cells [2]: 0.076 µg/mL
- IC50, TREM2 shedding inhibition in Jurkat-NFAT reporter cells (sTREM2 ELISA) [2]: 0.975 µg/mL
- Kd [3]: 0.42 nM
- koff [3]: 0.00035 s⁻¹
- kon [3]: 840000 M⁻¹ s⁻¹

B3: rat 3.27H7 mIgG2a LALAPG (antibody, V domains shown)
VH: EVQLVETGGSLVQPGGSLKLTCATSGFPFSNVWLHWIRRSPEKQLEWVAQIKARSDNYATYYAESVKGRFIVSRDDSKTTIYLQMNNLKEEDTAIYYCTGLDYWGQGVMVTVSS
VL: DVVLTQAPLSVSVTPGESASISCRSSRSLLTSKGITSLYWYLQKPGMSPHLLIYRMSNLASGIPDRFSGSGSETDFTLKISEVEPEDVGVYYCAQFLVYPYTFGAGTKLELK
notes: Mouse IgG2a LALAPG constant region
- binding result [4]: no binding

B4: 3.10C2-H6/3.10C2-L1 Fab (Fab, V domains shown)
VH: EVQLVESGGGLVQPGGSLKLSCATSGFPFSNVWMHWVRQASGKGLEWVAHIKAKSDNYATYYAESVKGRFTISRDDSKNTIYLQMNSLKTEDTAVYYCTGLDYWGQGTTVTVSS
VL: DTVLTQSPLSLPVTPGEPASISCRSSKSLLGVRDITSLYWYLQKPGQSPQLLIYRMSNLASGVPDRFSGSGSETDFTLKISRVEAEDVGVYYCAQFLRYPYTFGQGTKVEIK
- koff [5]: 0.0013 s⁻¹
- kon [5]: 210000 M⁻¹ s⁻¹

B5: 3.10C2-H4/3.10C2-L1 Fab (Fab, V domains shown)
VH: EVQLVESGGGLVQPGGSLKLSCAASGFPFSNVWMHWVRQASGKGLEWIGHIKAKSDNYATYYAESVKGRFTISRDDSKNTIYLQMNSLKTEDTAVYYCTGLDYWGQGTTVTVSS
VL: DTVLTQSPLSLPVTPGEPASISCRSSKSLLGVRDITSLYWYLQKPGQSPQLLIYRMSNLASGVPDRFSGSGSETDFTLKISRVEAEDVGVYYCAQFLRYPYTFGQGTKVEIK
- koff [5]: 0.024 s⁻¹
- kon [5]: 1.2e+06 M⁻¹ s⁻¹

B6: 3.10C2-H7/3.10C2-L1 Fab (Fab, V domains shown)
VH: EVQLVESGGGLVQPGGSLKLSCATSGFPFSNVWMHWVRQASGKGLEWVAHIKAKSDNYATYYAESVKGRFTISRDDSKNTAYLQMNSLKTEDTAVYYCTGLDYWGQGTTVTVSS
VL: DTVLTQSPLSLPVTPGEPASISCRSSKSLLGVRDITSLYWYLQKPGQSPQLLIYRMSNLASGVPDRFSGSGSETDFTLKISRVEAEDVGVYYCAQFLRYPYTFGQGTKVEIK
- koff [5]: 0.018 s⁻¹
- kon [5]: 1.2e+06 M⁻¹ s⁻¹

B7: 3.10C2-H2/3.10C2-L1 Fab (Fab, V domains shown)
VH: EVQLVESGGGLVQPGGSLKLSCATSGFPFSNVWMHWVRQASGKGLEWVGHIKAKSDNYATYYAESVKGRFTISRDDSKNTIYLQMNSLKTEDTAVYYCTGLDYWGQGTTVTVSS
VL: DTVLTQSPLSLPVTPGEPASISCRSSKSLLGVRDITSLYWYLQKPGQSPQLLIYRMSNLASGVPDRFSGSGSETDFTLKISRVEAEDVGVYYCAQFLRYPYTFGQGTKVEIK
- koff [5]: 0.0059 s⁻¹
- kon [5]: 520000 M⁻¹ s⁻¹

B8: rat 3.18E5 mIgG2a LALAPG (antibody, V domains shown)
VH: EVQLVETGGSLVQPGKSLKLTCATSGFPFSNVWMHWVRQSPEKQLEWIAHIKAKSDNYATYYAESVKGRFTISRDDSKTTIYLQMNSLKEADTAIYYCTGLDYWGQGVMVTVSS
VL: DTVLTQAPLSVSVTPGESASISCRSNKSLLGIRDITSLYWYLQKPGKSPQLLIYRMSNLASGVPDRFSGSGSETDFTLKISEVETEDVGVYYCAQFLRYPYTFGPGTKLELK
notes: as for B3
- binding result [4]: no binding

B9: 3.10C2 Fab (Fab, V domains shown)
VH: EVQLVETGGSLVQPGKSLKLTCATSGFPFSNVWMHWVRQSPEKQLEWIAHIKAKSDNYATYYAESVKGRFTISRDDSKTSIYLQMNSLKEDDTAIYYCTGLDYWGQGVMVTVSS
VL: DTVLTQAPLSLSVTPGESASISCRSSKSLLGVRDITSLYWYLQKPGKSPQLLIYRMSNLASGVPDRFSGSGSETDFTLKISEVETEDVGVYYCAQFLRYPYTFGPGTKLELK
notes: also called 3.10C2 (3.10C2); Rat3.10C2
- Kd [6]: 0.19 nM
- koff [6]: 0.00018 s⁻¹
- kon [6]: 910000 M⁻¹ s⁻¹
- Kd [7]: 0.22 nM
- koff [7]: 0.0002 s⁻¹
- kon [7]: 910000 M⁻¹ s⁻¹
- koff [5]: 0.00019 s⁻¹
- kon [5]: 720000 M⁻¹ s⁻¹
- Kd [8]: 0.2 nM
- koff [8]: 0.00017 s⁻¹
- kon [8]: 850000 M⁻¹ s⁻¹
- Kd [9]: 0.22 nM
- koff [9]: 0.00015 s⁻¹
- kon [9]: 680000 M⁻¹ s⁻¹

B10: rat 3.50G1 mIgG2a LALAPG (antibody, V domains shown)
VH: EVQLVETGGSLVQPGKSLKLTCATSGFPFSNVWMHWVRQSPEKQLEWIAHIKAKSDNYATYYAESVKGRFTISRDDSKTSIYLQMNSLKDDDTAIYYCTGLDYWGQGVMVTVSS
VL: DTVLTQAPLSVSVTPGESASISCRSNKSLLGIRDITSLYWFLQKPGKSPQLLIYRMSNLASGVPDRFSGSGSETDFTLKISEVETEDVGVYYCAQFLRYPYTFGPGTKLELQ
notes: as for B3
- binding result [4]: no binding
